Experimental data published in patent US20090094709.

System: AMPK, active (upstate) protein

## PP2Cε protein (in vitro assay)
  dephosphorylation of AMPK: the dephosphorylation of AMPK with PP2Cε occurs concentration-dependently
